# Assay results as given in patent US10227575B2, “Multi-domain enzymes having cutinase activity, compositions comprising same and uses thereof” (OZYMES, priority 2015, dated 2019).
# Where “and” joins values, the source holds several entries; their conditions need not be identical. Equal values may be shown once. Marks after values point to notes of the source that are not given here.
# B1: CfCUT: mature wild-type cutinase from Cellulomonas flavigena, SEQ ID NO: 28 (protein, listed as Cellulomonas flavigena)
# chain: APACPDVELVFARGTGEAAGLGIVGRPLERALAAELPGRTVVATAVDYAASSSQASAGPGSGDMVAKVRSRAAACPGTQFVLGGYSQGATVTDLALGIRTGVTAGTALPEDLAARVAAVVVYGNPLGLTRRTIAQAAPAFATRTVEYCNAGDPVCEPGGGRFTAHITYATNGTVLEGARFAAARVTAPAPTPTPGPTGTPAPVPSAEPTPAPGDTCVTASSLQHVRDGRAYPLWMRTYARGSGDPLGVLSSRTVVSLQADGTDTWRKVAAC
# Columns and labels:
# [1] = Stability in the presence of hydrogen peroxide; assay type: physicochemical
# Protocol: (§1) Esterase activity was determined by monitoring the formation of para-nitrophenol (pNP) at 410 nm from various pNP-esters using a Beckman UV spectrophotometer (model DU 640). Substrates were completely dissolved in 2-propanol (8 mM) and were then added to 50 mM Tris/HCl buffer pH 8.0 to give a final substrate concentration of 0.8 mM. The reaction (1 mL) was started by adding an appropriate amount of enzyme. One enzyme unit (U) was defined as the amount of enzyme that produced 1 μmol of product (pNP) per min; specific activity was expressed as U/mg protein. A molar extinction coefficient of 15 mM^−1 cm^−1 was used for the calculation.
# Purified cutinases were incubated at room temperature in the presence of 0, 30, 100, 300, 1500, and 3000 ppm of hydrogen peroxide. Residual enzyme activity was assayed (see Example 20.1) after 1, 2, 3, and 7 days of incubation.
# [2] = Specific activity of purified enzymes (standard esterase assay); assay type: biochemical
# Protocol: In summary, using different techniques for enzyme purification, pure enzyme preparations were obtained and tested for their activity towards a standard esterase substrate, pNP-palmitate. Enzymatic activities of the purified variants are summarized below:
# as §1
# [3] = Circular dichroism spectroscopy, melting temperature and refolding; assay type: physicochemical
# Protocol: CD spectra were recorded using a Jasco™ J-815 spectrometer operating with the Spectra™ Manager software. Temperature was controlled using a Jasco™ PFD-452S peltier unit. Previously purified protein solutions were adjusted to 0.15 mg/mL (if quantities allowed for) and CD spectra were recorded between 190 and 250 nm using a Quartz cuvette (ID=0.1 cm). Blanks containing buffer only were prepared and used as baseline. Temperature dependent protein unfolding was monitored at 222 nm with thermo profiles ranging from 20 up to 90° C. (2° C. min-1). Samples were kept for 5 min at the respective maximum temperature and protein refolding was monitored using the same conditions as above reversing the thermo profiles. Thermodynamic parameters (Tm, ΔH, ΔS, ΔG) for the folding/unfolding process, if applicable, were calculated using the Spectra™ Manager software.
# [4] = Activity of crude culture supernatants from bioreactor; assay type: biochemical; conditions: pNP-dodecanoate
# [5] = Enzymatic activity in the presence of organic solvents; assay type: biochemical; conditions: buffer only = 100%
# Protocol: Enzyme activity in various organic solvents was studied over a concentration range of 1-30% at room temperature. pNP-palmitate was completely dissolved in 2-propanol (8 mM) and then added to 50 mM Tris/HCl buffer pH 8.0 containing up to 30% organic solvent to give a final substrate concentration of 0.8 mM. The reaction was started by addition of enzyme and the formation of pNP was assayed as described above in Example 20.1.
# [6] = Enzyme substrate profiles, esterase assays; assay type: biochemical; conditions: highest activity towards a specific substrate set to 100%
# Protocol: as §1
# pH dependence of enzymes = assay type: biochemical; conditions: for Relative activity (%): highest activity = 100%
# Protocol: The influence of different pH values (from 5.5 to 11) on the activities of the purified enzymes was examined in three buffer systems (sodium acetate, sodium phosphate, and Tris-HCl) at room temperature using pNP-palmitate (see esterase assay in Example 20.1) as a substrate at a final substrate concentration of 0.8 mM.
# Temperature optimum = assay type: biochemical; conditions: for Relative activity at temperature: highest activity set to 100%
# Protocol: For estimation of the temperature optimum, buffer containing pNP-palmitate (see esterase assay in Example 20.1) was pre-incubated to reach the desired temperature, enzyme was then added, and the formation of pNP was assayed. For this experiment, Tris/HCl buffer was replaced with sodium phosphate buffer (50 mM, pH 8.0) to avoid a pH shift at the different temperatures.
molecule,measurement,setting,value
B1,Relative activity (%) after exposure to hydrogen peroxide,"[1]; H2O2 30 ppm, Day 0",101 ± 22%
same,Relative activity (%) after exposure to hydrogen peroxide,"[1]; H2O2 30 ppm, Day 1",89 ± 8%
same,Relative activity (%) after exposure to hydrogen peroxide,"[1]; H2O2 30 ppm, Day 2",82 ± 8%
same,Relative activity (%) after exposure to hydrogen peroxide,"[1]; H2O2 30 ppm, Day 3",76 ± 6%
same,Relative activity (%) after exposure to hydrogen peroxide,"[1]; H2O2 30 ppm, Day 7",72 ± 7%
same,Relative activity (%) after exposure to hydrogen peroxide,"[1]; H2O2 100 ppm, Day 0",92 ± 5%
same,Relative activity (%) after exposure to hydrogen peroxide,"[1]; H2O2 100 ppm, Day 1",114 ± 15%
same,Relative activity (%) after exposure to hydrogen peroxide,"[1]; H2O2 100 ppm, Day 2",118 ± 15%
same,Relative activity (%) after exposure to hydrogen peroxide,"[1]; H2O2 100 ppm, Day 3",92 ± 11%
same,Relative activity (%) after exposure to hydrogen peroxide,"[1]; H2O2 100 ppm, Day 7",94 ± 7%
same,Relative activity (%) after exposure to hydrogen peroxide,"[1]; H2O2 300 ppm, Day 0",93 ± 12%
same,Relative activity (%) after exposure to hydrogen peroxide,"[1]; H2O2 300 ppm, Day 1",106 ± 20%
same,Relative activity (%) after exposure to hydrogen peroxide,"[1]; H2O2 300 ppm, Day 2",118 ± 12%
same,Relative activity (%) after exposure to hydrogen peroxide,"[1]; H2O2 300 ppm, Day 3",102 ± 14%
same,Relative activity (%) after exposure to hydrogen peroxide,"[1]; H2O2 300 ppm, Day 7",106 ± 13%
same,Relative activity (%) after exposure to hydrogen peroxide,"[1]; H2O2 1,500 ppm, Day 0",126 ± 1%
same,Relative activity (%) after exposure to hydrogen peroxide,"[1]; H2O2 1,500 ppm, Day 1",106 ± 12%
same,Relative activity (%) after exposure to hydrogen peroxide,"[1]; H2O2 1,500 ppm, Day 2",109 ± 2%
same,Relative activity (%) after exposure to hydrogen peroxide,"[1]; H2O2 1,500 ppm, Day 3",95 ± 4%
same,Relative activity (%) after exposure to hydrogen peroxide,"[1]; H2O2 1,500 ppm, Day 7",54 ± 16%
same,Relative activity (%) after exposure to hydrogen peroxide,"[1]; H2O2 3,000 ppm, Day 0",128% and 128 ± 18%
same,Relative activity (%) after exposure to hydrogen peroxide,"[1]; H2O2 3,000 ppm, Day 1",115 ± 2%
same,Relative activity (%) after exposure to hydrogen peroxide,"[1]; H2O2 3,000 ppm, Day 2",99 ± 23%
same,Relative activity (%) after exposure to hydrogen peroxide,"[1]; H2O2 3,000 ppm, Day 3",60 ± 6%
same,Relative activity (%) after exposure to hydrogen peroxide,"[1]; H2O2 3,000 ppm, Day 7",35% and 35 ± 1%
same,Enzymatic activity of the purified variant,[2]; pNP-palmitate,26 ± 1 U/mg
same,Spec. Act. (U/mg),[2]; towards pNP-palmitate (standard assay),26 ± 1 U/mg
same,refolding,[3]; CD at 222 nm,did not show any refolding
same,melting temperature (Tm),"[3]; CD at 222 nm, unfolding",65.2 °C
same,Tm (° C.),[3]; estimated using CD-spectroscopy,65 ± 1 °C
same,activity of crude culture supernatant,[4],0.5 U/mL
same,Relative enzymatic activity (%),[5]; 2-Propanol 5% (v/v),70 ± 3%
same,Relative enzymatic activity (%),[5]; 2-Propanol 10% (v/v),17 ± 8%
same,Relative enzymatic activity (%),[5]; Acetone 1% (v/v),92 ± 9%
same,Relative enzymatic activity (%),[5]; Acetone 5% (v/v),95 ± 1%
same,Relative enzymatic activity (%),[5]; Acetone 10% (v/v),52 ± 5%
same,Relative enzymatic activity (%),[5]; Dimethyl sulfoxide (DMSO) 10% (v/v),105 ± 11%
same,Relative enzymatic activity (%),[5]; Dimethyl sulfoxide (DMSO) 20% (v/v),107 ± 1%
same,Relative enzymatic activity (%),[5]; Dimethyl sulfoxide (DMSO) 30% (v/v),57 ± 15%
same,Relative enzymatic activity (%),[5]; Dimethylformamide (DMF) 5% (v/v),101 ± 17%
same,Relative enzymatic activity (%),[5]; Methanol 10% (v/v),115 ± 11%
same,Relative enzymatic activity (%),[5]; Methanol 20% (v/v),62 ± 3%
same,"Relative activity, pNP-acetate (C2)",[6],6%
same,"Relative activity, pNP-butyrate (C4)",[6],93 ± 8%
same,"Relative activity, pNP-caprylate (C8)",[6],11 ± 2%
same,"Relative activity, pNP-decanoate (C10)",[6],40 ± 5%
same,"Relative activity, pNP-myristate (C14)",[6],47 ± 8%
same,"Relative activity, pNP-palmitate (C16)",[6],100* %
same,pH opt.,pH dependence of enzymes,9.5
same,Relative activity (%),"pH dependence of enzymes; pH 6.5, sodium phosphate buffer",13 ± 2%
same,Relative activity (%),"pH dependence of enzymes; pH 7.0, sodium phosphate buffer",40 ± 4%
same,Relative activity (%),"pH dependence of enzymes; pH 7.5, sodium phosphate buffer",65 ± 5%
same,Relative activity (%),"pH dependence of enzymes; pH 8.0, Tris/HCl",62 ± 2%
same,Relative activity (%),"pH dependence of enzymes; pH 8.5, Tris/HCl",85 ± 6%
same,Relative activity (%),"pH dependence of enzymes; pH 9.0, Tris/HCl",93 ± 9%
same,Relative activity (%),"pH dependence of enzymes; pH 9.5, Tris/HCl",100* %
same,Relative activity (%),"pH dependence of enzymes; pH 10, Tris/HCl",31 ± 1%
same,Temp. opt. (° C.),Temperature optimum,25 °C
same,Relative activity at temperature,Temperature optimum; 20 ° C.,69 ± 2%
same,Relative activity at temperature,Temperature optimum; 25 ° C.,100* %
same,Relative activity at temperature,Temperature optimum; 30 ° C.,63 ± 7%
same,Relative activity at temperature,Temperature optimum; 35 ° C.,45 ± 5%
same,Relative activity at temperature,Temperature optimum; 40 ° C.,38 ± 8%
same,Relative activity at temperature,Temperature optimum; 45 ° C.,1%
